From PMC7399497, “The Dual PDZ Domain from Postsynaptic Density Protein 95 Forms a Scaffold with Peptide Ligand” (Biophysical Journal, 2020) come the findings set out here.

Holding throughout (assay): ITC; 5 mM RRESEI in the syringe, PDZ1-2, PDZ1 or PDZ2 in the cell at nominally 0.13 mM; 25°C; 20 mM Tris-HCl, 150 mM NaCl pH 8.5; single class of sites; Kd and N could not be refined independently
Common to all, as to settings: both partners purified
A general note: ITC needs no label: the signal is the heat of the interaction.

One assay addresses T1, PSD-95 PDZ1 domain (human, UniProt P78352 55-152).
T1 construct: Gly-Pro left at the N-terminus after HRV 3C cleavage of the tag; PSD-95, human, PDZ1, residues 55-152 of UniProt P78352 (98-195 of P78352-2); Glutathione was not used in the purification of the single domains; source: E. coli BL21(DE3), purified (Ni-NTA, HRV 3C tag cleavage, negative Ni-NTA, Superdex 200 SEC); not shown: His6, N-terminal, cleaved

The target in assay [1] is T2, PSD-95 PDZ1-2 (dual PDZ domain of postsynaptic density protein 95) (human, UniProt P78352 55-249).
T2 construct: Gly-Pro left at the N-terminus after HRV 3C cleavage of the tag; PSD-95 (disks large homolog 4, SAP-90), human, residues 55-249 of UniProt P78352 (98-292 of P78352-2); PDZ1, linker and PDZ2; No Cys residues in the construct; also called apo-PDZ1-2; PDZ1-2 double domain; source: E. coli BL21(DE3), purified (Ni-NTA, HRV 3C tag cleavage, negative Ni-NTA, Superdex 200 SEC); not shown: His6, …

For another assay, the target named is T3, PSD-95 PDZ2 domain (human, UniProt P78352 154-249).
T3 construct: Gly-Pro left at the N-terminus after HRV 3C cleavage of the tag; PSD-95, human, PDZ2, residues 154-249 of UniProt P78352 (197-292 of P78352-2); Glutathione was not used in the purification of the single domains; source: E. coli BL21(DE3), purified (Ni-NTA, HRV 3C tag cleavage, negative Ni-NTA, Superdex 200 SEC); not shown: His6, N-terminal, cleaved
T3 sequence (P78352 other isoform, or with tags, fused parts or gaps): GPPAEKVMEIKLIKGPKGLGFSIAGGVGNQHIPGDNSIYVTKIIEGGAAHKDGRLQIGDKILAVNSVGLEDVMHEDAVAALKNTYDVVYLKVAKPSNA

T2 sequence (P78352 other isoform, or with tags, fused parts or gaps): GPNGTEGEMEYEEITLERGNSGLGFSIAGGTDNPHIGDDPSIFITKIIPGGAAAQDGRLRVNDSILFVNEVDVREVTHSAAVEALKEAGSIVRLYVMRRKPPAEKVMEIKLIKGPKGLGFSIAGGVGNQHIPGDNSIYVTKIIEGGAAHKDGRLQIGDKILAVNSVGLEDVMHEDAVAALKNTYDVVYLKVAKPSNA
T1 sequence (P78352 other isoform, or with tags, fused parts or gaps): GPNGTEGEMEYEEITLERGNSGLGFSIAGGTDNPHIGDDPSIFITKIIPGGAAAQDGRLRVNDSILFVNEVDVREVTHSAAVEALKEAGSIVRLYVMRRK

B1: RRESEI peptide (last six residues, 422-427, of Kir2.1) (peptide)
peptide: RRESEI
notes: C-terminal six residues (422-427) of the inwardly rectifying potassium channel Kir2.1; also called RRESEI ligand; ligand peptide; source: synthetic peptide, 98% purity; bought: Peptide Protein Research
By Kd is commonly meant the free concentration of one partner at which half of the binding sites on the other are occupied at equilibrium, for simple one-to-one binding. A lower Kd goes with higher affinity. In general, stoichiometry N refers to a count of units in the complex or per binding partner. As for B1, the Kd with PSD-95 PDZ1 domain worked out at 6 ± 6 µM; in assay [1], 90 ± 9 µM; with PSD-95 PDZ2 domain, 60 ± 2 µM. The “stoichiometry N” value was 0.61 ± 0.08 with PSD-95 PDZ1 domain, 0.2 ± 0.07 in assay [1] and 0.19 ± 0.06 in the assay with PSD-95 PDZ2 domain.
